Results as given in patent US7407939B2, “Protein kinase inhibitors comprising ATP mimetics conjugated to peptides or peptidomimetics” (CureGenics Ltd., priority 2001, dated 2008).
Read-outs that look alike come from different tables or passages of the source. Values belong to the compound of their own block, whether it stands above or below them. *1 amine or outer side, *2 acyl side, *3 side chain or, on linkers, in order; H or OH if unused. Where a SMILES comes first, the peptide text is derived from it. Where no end group is shown, it is not given here. Side-chain parts run from the residue outwards. [ ]: non-standard residue; d: D form. The star is where a group is joined. X1 = 5‑aminoethylsulfonamide isoquinoline, O=S(=O)(NCCN*)c1cccc2cnccc12; Isoquinoline5sulfonyl = O=S(=O)(c1cccc2cnccc12)*; X2 = O=C(OCC(Cc1ccccc1)N[*:1])[*:2]; Ethylenediamine = C(CN[*:2])N[*:1]; hLeu = CC(C)CC[C@H](N)C(=O)O; Nle = CCCC[C@H](N)C(=O)O; Orn = NCCC[C@H](N)C(=O)O; Dab = NCC[C@H](N)C(=O)O; Nva = CCC[C@H](N)C(=O)O; Abu = CC[C@H](N)C(=O)O; Dap = NC[C@H](N)C(=O)O; GlyNH2 = aminoglycine; βAla = NCCC(=O)O

Assays:
[1] = biological target: T1, PKA (Bos taurus, UniProt P00517); test: In vitro PKA kinase activity assay (kemptide / SPA beads); assay type: biochemical; set-up: % Inhibition PKA: concentration or dose not given beside the values; details: for PKA-kinase Assay 1, % inhibition of kinase activity / PKA-kinase Assay 2, % inhibition of kinase activity / inhibition at 1 µM: 1 μM compound concentration; for % Inhibition PKA: plate screening;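 on all read-outs here: Cell-free assay of purified PKA catalytic subunit phosphorylating the 7-mer kemptide substrate, run in MOPS buffer with magnesium acetate and BSA, with blank wells lacking enzyme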
T1 construct: purchased Promega

[2] = biological target: T2, PKB (Homo sapiens, UniProt P31749); test: PKB in vitro kinase activity assay (soluble His-HA-PKB / SPA bead screening); assay type: biochemical; set-up: % Inhibition PKB I / % Inhibition PKB II: concentration or dose not given beside the values; details: for PKB-kinase (spa) Assay 1, % inhibition of kinase activity / PKB-kinase (spa) Assay 2, % inhibition of kinase activity / inhibition at 1 µM: 1 μM compound concentration; for % Inhibition PKB I / % Inhibition PKB II: plate screening
T2 construct: His; HA; made in house
T2 sequence (P31749 whole entry, species assumed): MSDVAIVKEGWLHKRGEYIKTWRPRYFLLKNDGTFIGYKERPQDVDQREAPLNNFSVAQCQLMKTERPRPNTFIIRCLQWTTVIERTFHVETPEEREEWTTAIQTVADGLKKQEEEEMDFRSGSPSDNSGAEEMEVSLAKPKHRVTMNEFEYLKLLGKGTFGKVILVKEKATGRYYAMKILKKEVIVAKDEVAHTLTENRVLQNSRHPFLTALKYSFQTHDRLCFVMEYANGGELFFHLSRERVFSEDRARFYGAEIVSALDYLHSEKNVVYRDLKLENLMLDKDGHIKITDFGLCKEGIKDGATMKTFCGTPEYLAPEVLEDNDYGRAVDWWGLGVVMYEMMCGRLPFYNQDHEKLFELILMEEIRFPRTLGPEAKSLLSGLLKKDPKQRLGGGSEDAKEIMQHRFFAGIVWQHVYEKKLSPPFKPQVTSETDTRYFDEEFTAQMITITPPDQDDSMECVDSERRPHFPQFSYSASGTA

[3] = Assay 1, read-out: PKB-kinase (spa) Assay 1, % inhibition of kinase activity
[4] = Assay 2, read-out: PKB-kinase (spa) Assay 2, % inhibition of kinase activity

PKA-kinase Assay 1, % inhibition of kinase activity ([1]; Assay 1): 92% | PKA-kinase Assay 2, % inhibition of kinase activity ([1]; Assay 2): 92% | PKB-kinase (spa) Assay 1, % inhibition of kinase activity ([2]; Assay 1): 56% | PKB-kinase (spa) Assay 2, % inhibition of kinase activity ([2]; Assay 2): 53%
Compound: 60020-52: Arg-Pro-Arg-Abu-Glu(Gly-5-aminoethylsulfonamide isoquinoline)-Orn-Hol (RPR[Abu]E([Gly-X1])[Orn][hLeu])

IC50 ([1]; Table 2, chimeric compounds, read-out: Activity PKA): 1 µM | IC50 ([2]; Table 2, chimeric compounds, read-out: Activity PKB): 3 µM
Compound: CC[C@H](NC(=O)[C@H](CO)NC(=O)[C@@H](NC(=O)[C@H](CCCNC(=N)N)NC(=O)[C@@H]1CCCN1C(=O)[C@@H](N)CCCNC(=N)N)[C@@H](C)O)C(=O)NC(COC(=O)NCCNS(=O)(=O)c1cccc2cnccc12)Cc1ccccc1 (stereo partly shown) [PTR 6013] (H-RPRTS[Abu][X2]-{Ethylenediamine-Isoquinoline5sulfonyl})

IC50 ([1]; Table 3, linear 7-mer peptides, read-out: Activity PKA): > 40 µM | IC50 ([2]; Table 3, linear 7-mer peptides, read-out: Activity PKB): 5 µM
Compound: CC(C)CC[C@H](NC(=O)[C@H](C)NC(=O)[C@H](CO)NC(=O)[C@@H](NC(=O)[C@H](CCCNC(=N)N)NC(=O)[C@@H]1CCCN1C(=O)[C@@H](N)CCCNC(=N)N)[C@@H](C)O)C(N)=O [TY 60002-50, Arg-Pro-Arg-Thr-Ser-Ala-Hol] (H-RPRTSA[hLeu]-NH2; N-terminus and C-terminus assumed)

% Inhibition PKA ([1]; peptide moiety alone): 7% | % Inhibition PKB I ([2]; peptide moiety alone): 39% | % Inhibition PKB II ([2]; peptide moiety alone): 48%
Compound: 60005-84 (RPR[Nva]TA[hLeu]) [Compound 60005-84]

inhibition at 1 µM ([1]; Assay 1, read-out: PKA-kinase Assay 1, % inhibition of kinase activity): 98% | inhibition at 1 µM ([1]; Assay 2, read-out: PKA-kinase Assay 2, % inhibition of kinase activity): 99% | IC50 ([1]; Table 1, most preferred compounds, read-out: IC50 PKA): 0.05 µM | inhibition at 1 µM [2, 3]: 89% | inhibition at 1 µM [2, 4]: 93% | IC50 ([2]; Table 1, most preferred compounds, read-out: IC50 PKB): 0.12 µM
Compound: CCCC[C@H](NC(=O)[C@H](CCCNC(=N)N)NC(=O)[C@@H]1CCCN1C(=O)[C@@H](N)CCCNC(=N)N)C(=O)N[C@@H](CCC(=O)NCC(=O)NCCNS(=O)(=O)c1cccc2cnccc12)C(=O)N[C@@H](CCN)C(=O)N[C@@H](CCC(C)C)C(N)=O [60020-58, Arg-Pro-Arg-Nle-Glu-(Gly-5-aminoethylsulfonamide)-Dab-Hol] (H-RPR[Nle]E([Gly-Ethylenediamine-Isoquinoline5sulfonyl])[Dab][hLeu]-NH2)

PKA-kinase Assay 1, % inhibition of kinase activity ([1]; Assay 1): 98% | PKA-kinase Assay 2, % inhibition of kinase activity ([1]; Assay 2): 99% | PKB-kinase (spa) Assay 1, % inhibition of kinase activity ([2]; Assay 1): 49% | PKB-kinase (spa) Assay 2, % inhibition of kinase activity ([2]; Assay 2): 49%
Compound: 60020-38: Arg-Pro-Arg-Dap-Glu(Gly-5-aminoethylsulfonamide isoquinoline)-Ala-Hol (RPR[Dap]E([Gly-X1])A[hLeu])

PKA-kinase Assay 1, % inhibition of kinase activity ([1]; Assay 1): 98% | PKA-kinase Assay 2, % inhibition of kinase activity ([1]; Assay 2): 99% | PKB-kinase (spa) Assay 1, % inhibition of kinase activity ([2]; Assay 1): 67% | PKB-kinase (spa) Assay 2, % inhibition of kinase activity ([2]; Assay 2): 65%
Compound: 60020-1: Arg-Pro-Arg-Dap-Glu(5-aminoethylsulfonamide isoquinoline)-Dab-Phe (RPR[Dap]E(X1)[Dab]F)

IC50 ([1]; Table 10, accurate IC50 curve, peptide moiety alone, read-out: IC50 μM PKA): 80 µM | % Inhibition PKA ([1]; peptide moiety alone): −2% | IC50 ([2]; Table 10, accurate IC50 curve, peptide moiety alone, read-out: IC50 μM PKB): 18 µM | % Inhibition PKB I ([2]; peptide moiety alone): 43%
Compound: CCC[C@H](NC(=O)[C@H](CCCNC(=N)N)NC(=O)[C@@H]1CCCN1C(=O)[C@@H](N)CCCNC(=N)N)C(=O)N[C@@H](CO)C(=O)N[C@@H](C)C(=O)N[C@@H](Cc1ccccc1)C(N)=O [60002-38] (H-RPR[Nva]SAF-NH2; N-terminus and C-terminus assumed)

PKA-kinase Assay 1, % inhibition of kinase activity ([1]; Assay 1): 96% | PKA-kinase Assay 2, % inhibition of kinase activity ([1]; Assay 2): 96% | PKB-kinase (spa) Assay 1, % inhibition of kinase activity ([2]; Assay 1): 52% | PKB-kinase (spa) Assay 2, % inhibition of kinase activity ([2]; Assay 2): 60%
Compound: 60020-3: Arg-Pro-Arg-Dap-Glu(5-aminoethylsulfonamide isoquinoline)-Orn-Phe (RPR[Dap]E(X1)[Orn]F)

% Inhibition PKA ([1]; peptide moiety alone): −4% | % Inhibition PKB I ([2]; peptide moiety alone): 70% | % Inhibition PKB II ([2]; peptide moiety alone): 70%
Compound: 60005-75 (RPR[Nva]S[GlyNH2][hLeu]) [Compound 60005-75]

IC50 ([1]; Table 6, most active compounds from plate TY-60020, read-out: IC50 PKA): 0.25 µM | inhibition at 1 µM [2, 3]: 61% | inhibition at 1 µM [2, 4]: 74% | IC50 ([2]; Table 6, most active compounds from plate TY-60020, read-out: IC50 PKB): 0.5 µM
Compound: CC(C)CC[C@H](NC(=O)[C@H](CCCN)NC(=O)[C@H](CCC(=O)NCCC(=O)NCCNS(=O)(=O)c1cccc2cnccc12)NC(=O)[C@H](CN)NC(=O)[C@H](CCCNC(=N)N)NC(=O)[C@@H]1CCCN1C(=O)[C@@H](N)CCCNC(=N)N)C(N)=O [60020-68] (H-RPR[Dap]E([βAla-Ethylenediamine-Isoquinoline5sulfonyl])[Orn][hLeu]-NH2; N-terminus assumed)
